# Test results as given in patent US20260152562A1.
# Key:
# Test in all cases: cell-based or functional assay
# [1] = biological target: Anti-EGFR Activatable Antibody with substrate 4001 (linker form not stated); as to Cleavability (%) MMP14: test concentration or dose not given here
# [2] = biological target: Anti-EGFR Activatable Antibody c225v5-3954-5007; as to Cleavability (%) Matriptase: test concentration or dose not given here; as to Cleavability (%) Neutrophil Elastase: test concentration or dose not given here
# [3] = biological target: Anti-EGFR Activatable Antibody c225v5-3954-5006; as to Cleavability (%) MMP14: test concentration or dose not given here; as to Cleavability (%) Neutrophil Elastase: test concentration or dose not given here
# [4] = biological target: Anti-EGFR Activatable Antibody C225v5-3954-4008 (linker form not stated)
# [5] = biological target: Anti-EGFR Activatable Antibody c225v5-3954-5011
# [6] = biological target: Anti-EGFR Activatable Antibody c225v5-3954-3001
# [7] = biological target: Anti-EGFR Activatable Antibody c225v5-3954-2001
# [8] = biological target: Anti-EGFR Activatable Antibody c225v5-3954-5013; as to Cleavability (%) Matriptase: test concentration or dose not given here
# [9] = biological target: Anti-EGFR Activatable Antibody c225v5-3954-4002SL
# [10] = biological target: Anti-EGFR Activatable Antibody c225v5-3954-5010
# [11] = biological target: Anti-EGFR Activatable Antibody c225v5-3954-4009SL
# [12] = biological target: Anti-EGFR Activatable Antibody c225v5-3954-4003SL
# [13] = biological target: Anti-EGFR Activatable Antibody c225v5-3954-4010SL
# [14] = biological target: Anti-EGFR Activatable Antibody c225v5-3954-4008LL
# [15] = biological target: Anti-EGFR Activatable Antibody c225v5-3954-4014SL; as to MMP14 Cleavability (%): test concentration or dose not given here
# [16] = biological target: Anti-EGFR Activatable Antibody c225v5-3954-5004
# [17] = biological target: Anti-EGFR Activatable Antibody c225v5-3954-5003; as to Cleavability (%) MMP14: test concentration or dose not given here
# [18] = biological target: Anti-EGFR Activatable Antibody c225v5-3954-4006SL
# [19] = biological target: Anti-EGFR Activatable Antibody c225v5-3954-5005
# [20] = biological target: Anti-EGFR Activatable Antibody c225v5-3954-4011SL
# [21] = biological target: Anti-EGFR Activatable Antibody c225v5-3954-5009
# [22] = biological target: Anti-EGFR Activatable Antibody c225v5-3954-4007SL
# [23] = biological target: Anti-EGFR Activatable Antibody c225v5-3954-5002; as to Cleavability (%) Neutrophil Elastase: test concentration or dose not given here
# [24] = biological target: Anti-EGFR Activatable Antibody c225v5-3954-5012
# [25] = biological target: Anti-EGFR Activatable Antibody c225v5-3954-5001; as to Cleavability (%) MMP14: test concentration or dose not given here; as to Cleavability (%) Matriptase: test concentration or dose not given here
# [26] = biological target: Anti-EGFR Activatable Antibody c225v5-3954-4001LL; as to MMP14 Cleavability (%): test concentration or dose not given here
# [27] = biological target: Anti-EGFR Activatable Antibody c225v5-3954-4005SL; as to MMP14 Cleavability (%): test concentration or dose not given here
# [28] = biological target: Anti-EGFR Activatable Antibody c225v5-3954-4012SL
# [29] = biological target: Anti-EGFR Activatable Antibody c225v5-3954-4015LL
# [30] = biological target: Anti-EGFR Activatable Antibody c225v5-3954-4006LL; as to MMP14 Cleavability (%): test concentration or dose not given here
# [31] = biological target: Anti-EGFR Activatable Antibody c225v5-3954-4004LL
# [32] = biological target: Anti-EGFR Activatable Antibody c225v5-3954-5008; as to Cleavability (%) Matriptase: test concentration or dose not given here; as to Cleavability (%) Neutrophil Elastase: test concentration or dose not given here
# [33] = biological target: Anti-EGFR Activatable Antibody c225v5-3954-4001SL
# Sequence of recombinant matriptase (Q9Y5Y6 615-855 limits assumed): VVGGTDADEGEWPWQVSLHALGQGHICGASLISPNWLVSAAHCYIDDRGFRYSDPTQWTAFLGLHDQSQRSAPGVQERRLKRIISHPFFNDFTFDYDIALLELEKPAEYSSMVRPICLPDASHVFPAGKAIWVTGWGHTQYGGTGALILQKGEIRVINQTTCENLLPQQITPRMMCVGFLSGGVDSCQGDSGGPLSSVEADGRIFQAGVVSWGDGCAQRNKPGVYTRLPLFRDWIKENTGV
# Sequence of recombinant neutrophil elastase (P08246 30-267 limits assumed): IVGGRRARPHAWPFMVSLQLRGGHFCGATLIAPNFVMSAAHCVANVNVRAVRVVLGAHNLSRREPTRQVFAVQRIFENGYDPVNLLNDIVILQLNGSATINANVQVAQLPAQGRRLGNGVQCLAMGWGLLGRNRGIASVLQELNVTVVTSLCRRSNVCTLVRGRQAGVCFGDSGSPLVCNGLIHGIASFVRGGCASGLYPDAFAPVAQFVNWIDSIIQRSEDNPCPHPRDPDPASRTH
# Sequence of recombinant MMP2 (P08253 110-660 limits assumed): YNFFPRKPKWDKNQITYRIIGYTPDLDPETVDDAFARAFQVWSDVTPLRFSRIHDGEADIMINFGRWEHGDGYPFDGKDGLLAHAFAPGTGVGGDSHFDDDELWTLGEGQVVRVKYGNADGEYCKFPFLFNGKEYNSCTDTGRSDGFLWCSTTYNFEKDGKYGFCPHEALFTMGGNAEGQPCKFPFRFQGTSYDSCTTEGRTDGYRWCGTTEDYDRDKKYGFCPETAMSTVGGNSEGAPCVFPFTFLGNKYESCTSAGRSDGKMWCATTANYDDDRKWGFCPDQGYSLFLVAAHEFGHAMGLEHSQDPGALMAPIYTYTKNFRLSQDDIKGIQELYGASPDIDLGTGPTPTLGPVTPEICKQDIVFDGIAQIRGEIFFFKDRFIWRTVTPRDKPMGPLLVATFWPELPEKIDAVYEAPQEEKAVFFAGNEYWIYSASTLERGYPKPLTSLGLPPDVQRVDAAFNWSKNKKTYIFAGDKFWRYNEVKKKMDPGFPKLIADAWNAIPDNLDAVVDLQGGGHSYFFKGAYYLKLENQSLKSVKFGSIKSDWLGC
substance,measurement,setting,value
recombinant MMP2 (from UniProt P08253 110-660) (enzyme),Kcat/Km (M^-1 s^-1) MMP2,[1],57600 M⁻¹ s⁻¹
same,Kcat/Km (M^-1 s^-1) MMP2,[2],98300 M⁻¹ s⁻¹
same,Kcat/Km (M^-1 s^-1) MMP2,[3],36900 M⁻¹ s⁻¹
same,Kcat/Km (M^-1 s^-1) MMP2,[4],13000 M⁻¹ s⁻¹
same,Kcat/Km (M^-1 s^-1) MMP2,[5],3380 M⁻¹ s⁻¹
same,Kcat/Km (M^-1 s^-1) MMP2,[6],310000 M⁻¹ s⁻¹
same,Kcat/Km (M^-1 s^-1) MMP2,[7],13200 M⁻¹ s⁻¹
same,Kcat/Km (M^-1 s^-1) MMP2,[8],76500 M⁻¹ s⁻¹
recombinant MMP9 (from UniProt P14780 107-707) (enzyme),MMP9 Cleavability (%),[9],87.5%
same,Cleavability (%) MMP9,[1],100%
same,Kcat/Km (M^-1 s^-1) MMP9,[1],8840 M⁻¹ s⁻¹
same,Cleavability (%) MMP9,[2],77%
same,Kcat/Km (M^-1 s^-1) MMP9,[2],25300 M⁻¹ s⁻¹
same,Cleavability (%) MMP9,[10],0%
same,Cleavability (%) MMP9,[3],81%
same,Kcat/Km (M^-1 s^-1) MMP9,[3],33900 M⁻¹ s⁻¹
same,MMP9 Cleavability (%),[11],22.1%
same,Cleavability (%) MMP9,[4],100%
same,Kcat/Km (M^-1 s^-1) MMP9,[4],18700 M⁻¹ s⁻¹
same,MMP9 Cleavability (%),[12],6%
same,MMP9 Cleavability (%),[13],18%
same,MMP9 Cleavability (%),[14],55.2%
same,Cleavability (%) MMP9,[5],55%
same,Kcat/Km (M^-1 s^-1) MMP9,[5],4180 M⁻¹ s⁻¹
same,MMP9 Cleavability (%),[15],0%
same,Cleavability (%) MMP9,[16],86%
same,Cleavability (%) MMP9,[17],100%
same,MMP9 Cleavability (%),[18],92.9%
same,Cleavability (%) MMP9,[19],72%
same,MMP9 Cleavability (%),[20],78.8%
same,Kcat/Km (M^-1 s^-1) MMP9,[6],50500 M⁻¹ s⁻¹
same,Cleavability (%) MMP9,[21],78%
same,MMP9 Cleavability (%),[22],69.5%
same,Cleavability (%) MMP9,[7],22%
same,Kcat/Km (M^-1 s^-1) MMP9,[7],394 M⁻¹ s⁻¹
same,Cleavability (%) MMP9,[23],37%
same,Cleavability (%) MMP9,[24],52%
same,Cleavability (%) MMP9,[25],76%
same,MMP9 Cleavability (%),[26],100%
same,MMP9 Cleavability (%),[27],70.5%
same,MMP9 Cleavability (%),[28],56.5%
same,MMP9 Cleavability (%),[29],90%
same,MMP9 Cleavability (%),[30],90.8%
same,Cleavability (%) MMP9,[8],62%
same,Kcat/Km (M^-1 s^-1) MMP9,[8],10400 M⁻¹ s⁻¹
same,MMP9 Cleavability (%),[31],29.8%
same,Cleavability (%) MMP9,[32],100%
same,MMP9 Cleavability (%),[33],94.5%
recombinant MMP14 (from UniProt P50281 112-538) (enzyme),MMP14 Cleavability (%),[9],85.9%
same,Cleavability (%) MMP14,[1],77%
same,Kcat/Km (M^-1 s^-1) MMP14,[1],6010 M⁻¹ s⁻¹
same,Cleavability (%) MMP14,[2],90%
same,Kcat/Km (M^-1 s^-1) MMP14,[2],9250 M⁻¹ s⁻¹
same,Cleavability (%) MMP14,[10],11%
same,Cleavability (%) MMP14,[3],6%
same,Kcat/Km (M^-1 s^-1) MMP14,[3],564 M⁻¹ s⁻¹
same,MMP14 Cleavability (%),[11],0%
same,Cleavability (%) MMP14,[4],6%
same,Kcat/Km (M^-1 s^-1) MMP14,[4],230 M⁻¹ s⁻¹
same,MMP14 Cleavability (%),[12],53.1%
same,MMP14 Cleavability (%),[13],0%
same,MMP14 Cleavability (%),[14],0%
same,Cleavability (%) MMP14,[5],7%
same,Kcat/Km (M^-1 s^-1) MMP14,[5],444 M⁻¹ s⁻¹
same,MMP14 Cleavability (%),[15],30.5%
same,Cleavability (%) MMP14,[16],19%
same,Cleavability (%) MMP14,[17],20%
same,MMP14 Cleavability (%),[18],85.7%
same,Cleavability (%) MMP14,[19],34%
same,MMP14 Cleavability (%),[20],9.9%
same,Kcat/Km (M^-1 s^-1) MMP14,[6],17000 M⁻¹ s⁻¹
same,Cleavability (%) MMP14,[21],9%
same,MMP14 Cleavability (%),[22],0%
same,Cleavability (%) MMP14,[7],58%
same,Kcat/Km (M^-1 s^-1) MMP14,[7],6330 M⁻¹ s⁻¹
same,Cleavability (%) MMP14,[23],58%
same,Cleavability (%) MMP14,[24],72%
same,Cleavability (%) MMP14,[25],76%
same,MMP14 Cleavability (%),[26],100%
same,MMP14 Cleavability (%),[27],24.4%
same,MMP14 Cleavability (%),[28],0%
same,MMP14 Cleavability (%),[29],0%
same,MMP14 Cleavability (%),[30],84.2%
same,Cleavability (%) MMP14,[8],78%
same,Kcat/Km (M^-1 s^-1) MMP14,[8],7770 M⁻¹ s⁻¹
same,MMP14 Cleavability (%),[31],46.2%
same,Cleavability (%) MMP14,[32],55%
same,MMP14 Cleavability (%),[33],96.5%
recombinant legumain (from UniProt Q99538 18-323) (enzyme),Cleavability (%) Legumain,[1],0%
same,Cleavability (%) Legumain,[2],0%
same,Cleavability (%) Legumain,[10],0%
same,Cleavability (%) Legumain,[3],0%
same,Cleavability (%) Legumain,[4],0%
same,Cleavability (%) Legumain,[5],0%
same,Cleavability (%) Legumain,[16],27%
same,Cleavability (%) Legumain,[17],0%
same,Cleavability (%) Legumain,[19],0%
same,Cleavability (%) Legumain,[6],0%
same,Cleavability (%) Legumain,[21],0%
same,Cleavability (%) Legumain,[7],5%
same,Cleavability (%) Legumain,[23],21%
same,Cleavability (%) Legumain,[24],7%
same,Cleavability (%) Legumain,[25],0%
same,Cleavability (%) Legumain,[8],9%
same,Cleavability (%) Legumain,[32],0%
recombinant matriptase (from UniProt Q9Y5Y6 615-855) (enzyme),Cleavability (%) Matriptase,[1],0%
same,Kcat/Km (M^-1 s^-1) Matriptase,[1],0 M⁻¹ s⁻¹
same,Cleavability (%) Matriptase,[2],100%
same,Kcat/Km (M^-1 s^-1) Matriptase,[2],27200 M⁻¹ s⁻¹
same,Cleavability (%) Matriptase,[10],0%
same,Cleavability (%) Matriptase,[3],100%
same,Kcat/Km (M^-1 s^-1) Matriptase,[3],5370 M⁻¹ s⁻¹
same,Cleavability (%) Matriptase,[4],40%
same,Kcat/Km (M^-1 s^-1) Matriptase,[4],476 M⁻¹ s⁻¹
same,Cleavability (%) Matriptase,[5],80%
same,Kcat/Km (M^-1 s^-1) Matriptase,[5],1430 M⁻¹ s⁻¹
same,Cleavability (%) Matriptase,[16],75%
same,Cleavability (%) Matriptase,[17],99%
same,Cleavability (%) Matriptase,[19],6%
same,Kcat/Km (M^-1 s^-1) Matriptase,[6],5350 M⁻¹ s⁻¹
same,Cleavability (%) Matriptase,[21],100%
same,Cleavability (%) Matriptase,[7],53%
same,Kcat/Km (M^-1 s^-1) Matriptase,[7],2550 M⁻¹ s⁻¹
same,Cleavability (%) Matriptase,[23],100%
same,Cleavability (%) Matriptase,[24],0%
same,Cleavability (%) Matriptase,[25],100%
same,Cleavability (%) Matriptase,[8],0%
same,Kcat/Km (M^-1 s^-1) Matriptase,[8],0 M⁻¹ s⁻¹
same,Cleavability (%) Matriptase,[32],98%
recombinant neutrophil elastase (from UniProt P08246 30-267) (enzyme),Cleavability (%) Neutrophil Elastase,[1],37%
same,Cleavability (%) Neutrophil Elastase,[2],74%
same,Kcat/Km (M^-1 s^-1) Neutrophil Elastase,[2],24200 M⁻¹ s⁻¹
same,Cleavability (%) Neutrophil Elastase,[10],100%
same,Cleavability (%) Neutrophil Elastase,[3],30%
same,Cleavability (%) Neutrophil Elastase,[4],28%
same,Cleavability (%) Neutrophil Elastase,[5],100%
same,Kcat/Km (M^-1 s^-1) Neutrophil Elastase,[5],665000 M⁻¹ s⁻¹
same,Cleavability (%) Neutrophil Elastase,[16],84%
same,Cleavability (%) Neutrophil Elastase,[17],77%
same,Cleavability (%) Neutrophil Elastase,[19],81%
same,Cleavability (%) Neutrophil Elastase,[6],52%
same,Kcat/Km (M^-1 s^-1) Neutrophil Elastase,[6],19100 M⁻¹ s⁻¹
same,Cleavability (%) Neutrophil Elastase,[21],31%
same,Cleavability (%) Neutrophil Elastase,[7],18%
same,Kcat/Km (M^-1 s^-1) Neutrophil Elastase,[7],3170 M⁻¹ s⁻¹
same,Cleavability (%) Neutrophil Elastase,[23],67%
same,Cleavability (%) Neutrophil Elastase,[24],55%
same,Cleavability (%) Neutrophil Elastase,[25],88%
same,Cleavability (%) Neutrophil Elastase,[8],56%
same,Cleavability (%) Neutrophil Elastase,[32],66%
